Source: US20040214282A1 (BOARD OF TRUSTEES OF THE UNIVERSITY OF ARKANSAS, published 2004)

Molecular target: T1, recombinant I-domain of α2 integrin subunit (human, UniProt P17301 169-366)
T1 construct: domain: I-domain; Expressed from pQE30 and purified by Ni2+-chelating chromatography; also called α2-I domain
T1 sequence: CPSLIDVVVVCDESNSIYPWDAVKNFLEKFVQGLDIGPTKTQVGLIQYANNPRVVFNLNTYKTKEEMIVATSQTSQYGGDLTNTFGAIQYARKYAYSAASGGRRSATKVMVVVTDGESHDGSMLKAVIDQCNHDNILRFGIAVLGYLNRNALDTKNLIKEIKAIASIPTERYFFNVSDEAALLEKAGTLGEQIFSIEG
Assay: SPR (BIACORE 3000), P176 immobilized on a CM5 chip, α2-I as analyte, 1 mM MgCl2; Scatchard analysis of the equilibrium responses

B1: recombinant P176 (Scl1.41 recombinant protein) (other)
chain: EDSETATARTKLLEKLTELRSQSQDRVPQTSDITQAYTLWGTSYDSVELYKYLQQIEEYLQKQKYHEEQWKKEITDGLKSGALRGEKGEAGPQGEKGLPGLTGLPGLPGERGPRGPKGDRGETGAQGPVGPQGEKGEAGTPGKDGLRGPQGDPGAPGKDGAPGEKGDRGETGAQGPVGPQGEKGEAGTPGKDGAPGEKGEKGDRGETGATGAQGPQGEAGKDGAQGPVGPQGEKGETGAQGPAGPQGEKGETGAQGPAGPQGEAGQPGEKAPEKSPEVTPTPEMPEQPGEQAPEKSKEVTPAPEKWSHPQFEK
notes: Expressed in E. coli from pSL176 (scl1.M41 allele, GenBank AY452037); also called Scl P176
B1 showed a Kd of 17 nM.
